We go through six molecules from patent publication US20220153839A1 (NBE THERAPEUTICS, published 2022).

One experiment deals with T1, Fr + Ki (human, UniProt Q01973).
T1 construct: Frizzled and Kringle domains of the extracellular domain; also called hFc-hROR1-Fr-Ki
In words: ELISA on directly coated hFc fusion proteins of hROR1 domains; anti-His-HRP; A405. The method, then:
(§1) ELISA: For ELISA (FIG. 2), each well of a 96-well Costar 3690 plate (Corning, Corning, N.Y.) was coated with 100 ng anti-human IgG1 Fc in 25 μL coating buffer (0.1 M Na₂CO₃, 0.1 M NaHCO₃, pH 9.6) for 1 h at 37° C. After blocking with 150 μL 3% (w/v) BSA/TBS for 1 h at 37° C., hFc-hROR1 or hFc-mROR1 was captured following incubation at 100 ng/50 μL for 1 h at 37° C. Then 100 ng/50 μL of Fab was applied in each well at 37° C. 2 h later, 50 μL of a 1:1000 dilution of a mouse anti-His tag mAb conjugated to horse radish peroxidase (HRP) (R&D Systems, Minneapolis, Minn.) in 1% (w/v) BSA/TBS was used to detect the Fab. To determine the epitopes (FIG. 4), hFc fusion proteins containing different domains of hROR1 were coated directly, followed by incubation with Fab before detection by mouse anti-His tag mAb conjugated to HRP. Washing with PBS was repeated and colorimetric detection was performed using 2,2′-azino-bis(3-ethylbenzthiazoline)-6-sulfonic acid (Roche) as substrate according to the manufacturer's directions. The absorbance was measured at 405 nm using a SpectraMax M5 microplate reader (Molecular Devices; Sunnyvale, Calif.) and SoftMax Pro software (Molecular Devices).

The next experiment has as its target T2, Kr (human, UniProt Q01973).
T2 construct: Kringle domain of the extracellular domain; also called hFc-hROR1-Kr
The description is as above. Here is the method:
as §1

Another experiment concerns the target T3, Fr.
T3 construct: also called hFc-hROR1-Fr
Described as above. The method, then:
as §1

Experiment [1] deals with T4, hFc-hROR2 (extracellular domain of human ROR2 fused to the Fc domain of human IgG1) (human, UniProt Q01974 34-403).
T4 construct: extracellular domain; not shown: Fc domain of human IgG1
T4 sequence (Q01974 34-403): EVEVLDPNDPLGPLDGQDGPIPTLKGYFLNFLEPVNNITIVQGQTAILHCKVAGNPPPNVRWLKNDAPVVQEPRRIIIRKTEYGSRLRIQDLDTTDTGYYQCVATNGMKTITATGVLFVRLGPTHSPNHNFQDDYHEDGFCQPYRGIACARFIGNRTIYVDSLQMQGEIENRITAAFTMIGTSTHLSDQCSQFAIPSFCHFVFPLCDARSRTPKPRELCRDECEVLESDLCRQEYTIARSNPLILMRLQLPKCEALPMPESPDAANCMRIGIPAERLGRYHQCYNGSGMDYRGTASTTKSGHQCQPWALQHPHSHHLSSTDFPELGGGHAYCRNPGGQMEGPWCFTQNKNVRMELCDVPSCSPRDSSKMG
Description: ELISA as for hFc-hROR1; third bar series, keyed 'hFc-hROR1' a second time on the sheet, taken as hFc-hROR2 by legend paragraph 27. The method, then:
(§2) The binding of each chimeric rabbit/human Fab to hROR1 and mROR1 fused with human IgG1 Fc (hFc-hROR1 and hFc-mROR1) was analyzed by ELISA. hFc-ROR1 or hFc-mROR1 were captured by anti-human IgG1 Fc antibody immobilized on plate and then incubated with hROR1 specific Fabs comprising a His-tag via detection with mouse anti-His tag.
as §1

In experiment [2] the target is T5, hFc-mROR1 (extracellular domain of mouse ROR1 fused to the Fc domain of human IgG1) (human; mouse, UniProt Q9Z139 30-406).
T5 construct: extracellular domain; not shown: Fc domain of human IgG1
T5 sequence (Q9Z139 30-406): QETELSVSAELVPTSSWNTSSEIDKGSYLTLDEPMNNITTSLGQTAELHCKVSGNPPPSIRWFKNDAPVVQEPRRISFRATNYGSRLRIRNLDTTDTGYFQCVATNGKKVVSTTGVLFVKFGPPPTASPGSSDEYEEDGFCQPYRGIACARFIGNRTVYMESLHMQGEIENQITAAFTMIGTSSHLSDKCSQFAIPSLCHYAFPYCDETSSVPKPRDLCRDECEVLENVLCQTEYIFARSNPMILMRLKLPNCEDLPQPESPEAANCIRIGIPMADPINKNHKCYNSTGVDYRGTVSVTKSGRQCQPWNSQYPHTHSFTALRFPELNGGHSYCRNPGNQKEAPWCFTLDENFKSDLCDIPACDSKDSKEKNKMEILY
Description: ELISA; hFc fusion captured by coated anti-human IgG1 Fc; anti-His-HRP; A405. Here is the method: as §2, §1

The target of another experiment is T6, hROR2 (human, UniProt Q01974).
T6 construct: full length, on the cell surface; also called 63-12 / hROR2; ROR2 on T47D cells
T6 sequence (Q01974 34-943 limits assumed): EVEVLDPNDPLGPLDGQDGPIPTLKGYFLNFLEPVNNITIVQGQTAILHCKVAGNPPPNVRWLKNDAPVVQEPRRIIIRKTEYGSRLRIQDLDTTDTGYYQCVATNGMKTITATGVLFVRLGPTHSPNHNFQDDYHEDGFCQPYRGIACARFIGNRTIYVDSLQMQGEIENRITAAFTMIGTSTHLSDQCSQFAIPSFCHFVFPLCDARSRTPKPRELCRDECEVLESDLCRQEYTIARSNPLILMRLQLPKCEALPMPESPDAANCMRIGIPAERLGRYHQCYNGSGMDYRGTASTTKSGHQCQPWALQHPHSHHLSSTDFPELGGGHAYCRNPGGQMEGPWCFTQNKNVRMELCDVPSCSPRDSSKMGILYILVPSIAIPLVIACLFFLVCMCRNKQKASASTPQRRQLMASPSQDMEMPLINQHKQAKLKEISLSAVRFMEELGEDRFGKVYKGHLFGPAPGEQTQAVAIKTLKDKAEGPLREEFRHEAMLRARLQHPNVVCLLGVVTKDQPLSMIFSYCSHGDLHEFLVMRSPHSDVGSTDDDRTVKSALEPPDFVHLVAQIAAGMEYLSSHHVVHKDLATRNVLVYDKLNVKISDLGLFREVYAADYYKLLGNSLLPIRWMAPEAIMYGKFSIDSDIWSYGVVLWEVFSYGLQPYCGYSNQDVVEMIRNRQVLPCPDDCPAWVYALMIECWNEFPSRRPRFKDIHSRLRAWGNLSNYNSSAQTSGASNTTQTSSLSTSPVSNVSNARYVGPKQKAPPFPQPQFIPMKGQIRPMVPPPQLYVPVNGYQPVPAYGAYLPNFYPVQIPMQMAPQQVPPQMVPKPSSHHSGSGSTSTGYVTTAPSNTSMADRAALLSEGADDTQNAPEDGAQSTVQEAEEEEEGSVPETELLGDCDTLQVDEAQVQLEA
In words: flow cytometry on 63-12 / hROR2 cells; anti-His Alexa Fluor 488. The method, then:
Flow cytometry: Cells were stained using standard flow cytometry methodology. Briefly, for purified anti-ROR1 Fab (FIG. 3), 0.1-1×10⁶ cells were stained with 1000 ng/100 μL of Fab on ice for 1 h. After washing twice with ice-cold flow cytometry buffer (PBS containing 1% (v/v) BSA, 0.1% sodium azide and 1 mM EDTA), the cells were incubated with a 1:1000 dilution of a mouse anti-His tag mAb conjugated to Alexa Fluor 488 (Qiagen) in 100 μL flow cytometry buffer on ice for 30 min. For purified anti-ROR1 IgG1 (FIG. 8), 0.1-1×10⁶ cells were blocked by 4% goat serum for 15 min at room temperature and then incubated with 100 ng/100 μL of IgG on ice for 1 h. After washing twice with ice-cold flow cytometry buffer, cells were stained with a 1:500 dilution of goat anti-human IgG, Fcγ pAbs conjugated to APC (Jackson ImmunoResearch) in 100 μL flow cytometry buffer on ice for 30 min. For commercial goat anti human ROR1 polyclonal antibody (FIG. 8), 0.1-1×10⁶ cells were stained with 200 ng/100 μL of Ab on ice for 1 h. […] Finally, 4′,6-diamidino-2-phenylindole (DAPI) was added to a final concentration of 100 ng/mL to exclude dead cells from the analysis. Cells were analyzed using a FACSCalibur instrument (BD Biosciences) and FlowJo analytical software (Tree Star, Ashland, Oreg.).

Another experiment concerns the target T7, Ig (human, UniProt Q01973).
T7 construct: Ig domain of the extracellular domain; also called hFc-hROR1-Ig
Description: ELISA on directly coated hFc fusion proteins of hROR1 domains; anti-His-HRP; A405. The method, then:
as §1

Experiment [3] has as its target T8, hFc-hROR1 (extracellular domain of human ROR1 fused to the Fc domain of human IgG1) (human, UniProt Q01973 30-406).
T8 construct: extracellular domain; also called hFc-ROR1; not shown: Fc domain of human IgG1
Description: SPR (Biacore X100); hFc-hROR1 captured by anti-human Fcγ antibody on CM5; Fab as analyte; 1:1 Langmuir fit. Here is the method: (A) Shown are Biacore X100 sensorgrams obtained for the binding of each Fab to hFc-hROR1 captured by anti-human Fcγ antibody immobilized on CM5 chip after instantaneous background depletion. Fabs were injected at five different concentrations with the highest concentration indicated in table (B), one of the five concentrations was tested in duplicates. The equilibrium dissociation constant (Kd) was calculated from koff/kₒₙ (kₒₙ, association rate constant; koff, dissociation rate constant).
Surface plasmon resonance: Surface plasmon resonance for the measurement of the affinities of all Fabs to hFc-hROR1 and for epitope mapping studies were performed on a Biacore X100 instrument using Biacore reagents and software (GE Healthcare, Piscataway, N.J.). Anti-Human IgG (Fc) antibody was immobilized on a CM5 sensor chip following the instruction of Human Antibody Capture Kit (GE Healthcare, Piscataway, N.J.). The sensor chip included an empty flow cell for instantaneous background depletion. All binding assays used 1×HBS-EP+ running buffer (10 mM HEPES, 150 mM NaCl, 3 mM EDTA (pH 7.4), and 0.05% (v/v) Surfactant P20) and a flow rate of […]. […] The sensor chip was regenerated with […] from the Human Antibody Capture Kit without any loss of binding capacity. Calculation of association (kₒₙ) and dissociation (koff) rate constants was based on a 1:1 Langmuir binding model. The equilibrium dissociation constant (Kd) was calculated from koff/kₒₙ. For epitope mapping studies, each Fab was prepared at 500 nM alone in 1×HBS-EP+ running buffer and then injected in order as indicated in FIG. 5.

T8 sequence (Q01973 30-406): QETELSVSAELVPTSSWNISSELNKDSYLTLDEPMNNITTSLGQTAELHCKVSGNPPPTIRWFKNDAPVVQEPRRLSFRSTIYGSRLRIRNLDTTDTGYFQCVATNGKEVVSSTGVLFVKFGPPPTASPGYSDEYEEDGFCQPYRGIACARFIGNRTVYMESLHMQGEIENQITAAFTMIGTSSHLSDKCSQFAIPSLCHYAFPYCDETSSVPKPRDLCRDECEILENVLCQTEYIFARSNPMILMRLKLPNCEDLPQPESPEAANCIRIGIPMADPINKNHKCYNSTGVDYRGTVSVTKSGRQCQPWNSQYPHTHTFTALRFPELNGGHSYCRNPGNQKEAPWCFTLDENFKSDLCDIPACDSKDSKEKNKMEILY
T3 sequence (chain, as listed by the source limits assumed): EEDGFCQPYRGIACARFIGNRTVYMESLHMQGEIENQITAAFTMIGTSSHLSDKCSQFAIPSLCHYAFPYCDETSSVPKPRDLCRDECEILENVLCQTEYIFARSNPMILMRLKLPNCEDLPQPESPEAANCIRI
T7 sequence (Q01973 42-147 limits assumed): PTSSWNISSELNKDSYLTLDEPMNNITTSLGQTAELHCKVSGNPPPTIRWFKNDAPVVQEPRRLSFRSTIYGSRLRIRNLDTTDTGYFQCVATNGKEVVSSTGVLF
T1 sequence (Q01973 165-391 limits assumed): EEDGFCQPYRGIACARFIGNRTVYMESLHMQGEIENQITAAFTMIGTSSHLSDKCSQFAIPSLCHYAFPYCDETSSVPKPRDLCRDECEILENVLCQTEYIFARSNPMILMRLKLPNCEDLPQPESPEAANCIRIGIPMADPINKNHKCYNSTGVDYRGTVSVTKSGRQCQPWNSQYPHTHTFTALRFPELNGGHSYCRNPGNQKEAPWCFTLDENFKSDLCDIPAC
T2 sequence (Q01973 312-391 limits assumed): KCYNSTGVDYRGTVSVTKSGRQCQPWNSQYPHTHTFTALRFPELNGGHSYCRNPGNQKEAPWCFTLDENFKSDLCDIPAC

B1: ERR1-TOP40 chimeric rabbit/human Fab (Fab, V domains shown)
VH: QEQLEESGGRLVTPGTPLTLTCTASGFSLSNYYMSWVRQAPGKGLEYIGIISSSGSTYYASWAKGRFTISKTSSTTVDLKITSPTTEDTATYFCARLYVSDSTANLWGPGTLVTVSS
VL: DIVLTQTPSSTSAAVGGTVTIKCQASQSIDSYLAWYQQKPGQPPKLLIYGASNLASGVPSRFSGSRSGTEYILTISGVQREDAATYYCLGGYPNYFHRTAFGGGTKLEIK
notes: Chimeric rabbit/human Fab with His tag, expressed in E. coli (pET11a); kappa light chain
For the molecule B1, the binding result with Fr + Ki was “no binding”; with Kr, “no binding”; with Fr, “no binding”; in experiment [1] it was “no binding (tested: 100 ng/50 µL)”.

B2: ERR1-TOP15 chimeric rabbit/human Fab (Fab, V domains shown)
VH: QEQLVESGGRLVTPGGSLTLTCAASGFSPSSYWMSWVRQAPGKGLEWIGAIYVDSGSAYYASWAKSRFTISKTSSTTVDLKMTSLTTEDTAIYFCARDGWGSDVWGPGTLVTISS
VL: SYELTQLPSVSVSLGQTARITCGGNSIGSKAVHWYQQKPGLAPGLLIYDDDERPSGVPDRFSGSNSGDTATLTISGAQAGDEADYYCQLWDSSAGAYVFGGGTQLTVTG
notes: Chimeric rabbit/human Fab with His tag, expressed in E. coli (pET11a); lambda light chain
For the molecule B2, the binding result in experiment [2] was “no binding (tested: 100 ng/50 µL)”; with hROR2, “no binding (tested: 1000 ng/100 µL)”; in the experiment with Fr + Ki it was “no binding”; in the experiment with Kr it was “no binding”; with Fr, “no binding”; with Ig it was “no binding”. For the same molecule, in experiment [1], the binding result is “no binding (tested: 100 ng/50 µL)”. For the same molecule, the equilibrium dissociation constant (Kd) in experiment [3] worked out at 139 nM. In experiment [3], this molecule had a koff of 0.0654 s⁻¹. For the same molecule, the kon in experiment [3] came to 469000 M⁻¹ s⁻¹.

B3: ERR1-TOP54 chimeric rabbit/human Fab (Fab, V domains shown)
VH: QSLEESGGRLVTPGTPLTLTCTASGFSLSDYYMSWVRQAPGEGLEWIGTIYGGSGNTWYATWAKGRFTISKTSTTVDLKITSPTTEDTATYFCARDFGLSTGGLWGPGTLVTISS
VL: SYELTQLPSVSVSLGQTARITCGGNSIGSKAVNWYQQKPGLAPGLLIYDDDERPSGVPDRFSGSNSGDTATLTISGAQAGDEADYYCQLWDSSARAFVFGGGTQLTVTG
notes: as for B2
With B3, the binding result is on record as “no binding (tested: 100 ng/50 µL)” in experiment [2]; “no binding (tested: 1000 ng/100 µL)” with hROR2; “no binding” with Fr + Ki; “no binding” with Kr; “no binding” with Fr; “no binding (tested: 100 ng/50 µL)” in experiment [1]. In experiment [3], this molecule came in with a Kd of 145 nM. Also, the koff in experiment [3] came out at 0.0688 s⁻¹. The molecule also had an on-rate constant (kon) in experiment [3] of 475000 M⁻¹ s⁻¹.

B4: XBR1-402 chimeric rabbit/human Fab (Fab, V domains shown)
VH: QEQQKESGGGLFKPTDTLTLTCTASGFDISSYYMSWVRQAPGNGLEWIGAIGISGNAYYASWAKSRSTITRNTNLNTVTLKMTSLTAADTATYFCARDHPTYGMDLWGPGTLVTVSS
VL: SYELTQLPSVSVSLGQTARITCEGNNIGSKAVHWYQQKPGLAPGLLIYDDDERPSGVPDRFSGSNSGDTATLTISGAQAGDEADYYCQVWDSSAYVFGGGTQLTVTG
notes: Chimeric rabbit/human Fab with His tag, expressed in E. coli (pC3C-His); lambda light chain
For the molecule B4, the binding result is “no binding (tested: 100 ng/50 µL)” in experiment [2]; “no binding (tested: 1000 ng/100 µL)” with hROR2; “no binding” with Fr + Ki; “no binding” in the experiment with Kr; “no binding” with Ig; “no binding (tested: 100 ng/50 µL)” in experiment [1]. The same molecule returned a Kd in experiment [3] of 5.81 nM. In addition, in experiment [3], the koff was determined as 0.00643 s⁻¹. In experiment [3], this molecule came in with a kon of 1.11e+06 M⁻¹ s⁻¹.

B5: ERR1-324 chimeric rabbit/human Fab (Fab, V domains shown)
VH: QSLEESGGGLVQPGESLTLTCTVSGFSLSRNGMTWVRQAPGKGLEWIGIITSSGDKYYATWAKGRFTISKTSSTTVDLKMTSLTTEDTATYFCARGTVSSDIWGPGTLVTISS
VL: ELVLTQTPSPVSAAVGGTVTINCQASQSVYGNNELAWYQQKPGQPPKLLIYRASILTSGVPSRFKGSGSGTQFTLTISNVQREDAATYYCLGGYVSQSYRAAFGGGTELEIL
notes: as for B1
For B5, the binding result in the experiment with Fr + Ki was “no binding”; with Kr, “no binding”; with Fr, “no binding”; in experiment [1], “no binding (tested: 100 ng/50 µL)”.

B6: ERR1-306 chimeric rabbit/human Fab (Fab, V domains shown)
VH: QEQLKESGGGLVQPGGSLKLSCKASGFDLSNYGVSWVRQAPGKGLEWIGYIDPTFDYTYYASWVNGRFSISRENTQNTVSLQINSLTPADTATYFCARWVYGVDDYGDGNWLDLWGQGTLVTISS
VL: QFVLTQSPSVSAALGASAKLTCTLSSAHKTYTIDWYQQQQGEAPRYLMELKSDGSYTKGTGVPDRFSGSSSGADRYLIIPSVQADDEADYYCGTDYSGGYVFGGGTQLTVTG
notes: as for B2
B6: the binding result in the experiment with hROR2 is on record as “no binding (tested: 1000 ng/100 µL)”; in the experiment with Fr + Ki, “no binding”; in the experiment with Kr, “no binding”; in the experiment with Fr, “no binding”; with Ig, “no binding”; in experiment [1], “no binding (tested: 100 ng/50 µL)”.
